Experimental data: patent publication US20250277029A1 (Amgen, published 2025)

Experiments:
huCB1 nanodisc (CB1-ND) = target: T1, huCB1 nanodisc (CB1-ND) (human, UniProt P21554 99-414); experiment: Octet BLI; antibody captured by anti-human Fc, CB1-nanodisc in solution, 1:1 model
T1 construct: The His-tagged CB1 is embedded in a POPC lipid nanodisc with MSP1D1 scaffold protein (molar ratio 480:8:1); also called huCB1-ND; #CB1-008
Method: Affinity assay using Octet. The Octet@HTX (Sartorius, Germany) instrument was used to determine affinities of anti-CB1 antibodies. […] SA biosensors were loaded with biotinylated anti-human Fc antibody (Invitrogen, #A18827) followed by one baseline step of 60 s in Octet assay buffer. Anti-CB1 antibodies were prepared in Octet assay buffer and captured by the anti-human Fc antibody prior to being submerged in wells containing different concentrations of CB1-nanodisc (#CB1-008, in-house) for 5 min, followed by 10 min dissociation. […] SA biosensors were used once without regeneration. For data evaluation, ForteBio Data Analysis v11.0 software was used. The kinetic rate constants, association rate constant (ka, M−1s−1), dissociation rate constant (kd, s−1), and the equilibrium rate constant (KD, M) were determined by using a 1:1 Langmuir model.

[1] = target: T2, human cannabinoid receptor 1 (huCB1), full length, expressed on cells (human, UniProt P21554 1-472); experiment: KinExA on-cell ranking, HEK 293T cells expressing full length CB1; reference antibody of the ratio
T2 construct: Used for all assays on cells: stably transfected CHO / CHOK1 cells (cAMP assays) and transiently transfected HEK 293T cells (KinExA, FACS); also called Full length hu CB1; wt huCB1
From the text: The KD was obtained from nonlinear regression of the curves using a one site homogeneous binding model provided in the KinExA® Pro software Version 4.2.12. […] Similarly, to affinity experiment, cells were separated by centrifugation and free antibody in supernatant was collected and measured by KinExA® technology.

[2] = target: T2, human cannabinoid receptor 1 (huCB1), …; experiment: cell-based or functional assay
[3] = target: T2, human cannabinoid receptor 1 (huCB1), …; experiment: cell-based or functional assay; remark: listed apart in the source
[4] = target: T2, human cannabinoid receptor 1 (huCB1), …; experiment: cell-based or functional assay; remark: listed apart in the source

T1 sequence (P21554 99-414 limits assumed): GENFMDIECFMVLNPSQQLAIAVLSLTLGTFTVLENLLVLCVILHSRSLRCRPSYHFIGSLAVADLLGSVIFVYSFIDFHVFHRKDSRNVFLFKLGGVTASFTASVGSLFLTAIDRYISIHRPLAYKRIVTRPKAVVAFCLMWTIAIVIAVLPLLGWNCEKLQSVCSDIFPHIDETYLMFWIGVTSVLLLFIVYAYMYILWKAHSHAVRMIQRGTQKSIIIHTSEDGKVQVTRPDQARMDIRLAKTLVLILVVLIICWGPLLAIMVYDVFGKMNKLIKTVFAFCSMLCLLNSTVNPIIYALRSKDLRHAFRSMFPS
T2 sequence (P21554 whole entry): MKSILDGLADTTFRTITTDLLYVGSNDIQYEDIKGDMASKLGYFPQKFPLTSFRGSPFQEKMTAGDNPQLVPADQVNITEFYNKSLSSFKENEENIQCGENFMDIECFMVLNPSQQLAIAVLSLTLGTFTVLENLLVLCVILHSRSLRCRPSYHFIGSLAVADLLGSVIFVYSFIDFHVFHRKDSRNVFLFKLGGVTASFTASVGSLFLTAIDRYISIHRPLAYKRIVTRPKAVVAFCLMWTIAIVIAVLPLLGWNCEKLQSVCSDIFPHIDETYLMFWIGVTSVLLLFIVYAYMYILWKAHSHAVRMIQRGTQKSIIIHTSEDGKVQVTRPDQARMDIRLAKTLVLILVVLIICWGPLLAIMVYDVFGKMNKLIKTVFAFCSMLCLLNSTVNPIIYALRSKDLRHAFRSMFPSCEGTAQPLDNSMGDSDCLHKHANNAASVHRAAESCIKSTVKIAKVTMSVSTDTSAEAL

B1: LIBC523661-1 (antibody, V domains shown)
VH: QVQLQESGPGLVKPSQTLSLTCTVSGGSIRRGGDYWSWIRQHPGKGLEWIGHIYYEGSTKYNPSFKGRATISVNTYKNQFSLKLSSVTAADTAVYYCARDYDPVTGHSYYYYGMDVWGQGTTVTVSS
VL: DIVMTQSPLSLPVTPGEPASISCRSSQSLLTSSGYNYVDWYLQKPGQSPQLLIYQGSNRASGVPDRFSGSGSGTDFTLKISRVEAEDVGVYYCRQARAIPRTFGQGTKVEIKR
notes: Expressed as IgG1 SEFL2 mAb
Kd (huCB1 nanodisc (CB1-ND)): 77 nM | koff (huCB1 nanodisc (CB1-ND)): 0.00275 s⁻¹ | kon (huCB1 nanodisc (CB1-ND)): 35700 M⁻¹ s⁻¹ | Relative binding (KinExA, on cell; vs LIBC523661 mAb) [1]: 1 ratio | Mean IC50 (nM, n = 3), cAMP antagonist assay [2]: 3.88 nM | IC50, nM (CP agonist) [3]: 3.9 nM | Mean IC50 (nM), cAMP antagonist assay [4]: 3.3 nM | Mean IC50, -fold vs Rimo [4]: 1.1 fold vs Rimonabant | n = 1 IC50 (nM), cAMP antagonist assay [4]: 5.24 nM | n = 1 IC50, -fold vs Rimo [4]: 1.24 fold vs Rimonabant | n = 2 IC50 (nM), cAMP antagonist assay [4]: 1.35 nM | n = 2 IC50, -fold vs Rimo [4]: 0.75 fold vs Rimonabant
